These results are taken from paper PMC7998030.

One may read the stoichiometry N as the number of molecules, sites or subunits per partner or assembly.

Test [1] addresses JF646-labeled Mcm2-7 (MCM) hexamer on DNA after incubation with ORC, Cdc6 and ATP (S. cerevisiae) (UniProt P29469). The test can be described thus: single-molecule fluorescence colocalisation on optically trapped DNA (confocal microscopy, bleaching-step counting); bulk incubation of 5 nM ORC, 10 nM Cdc6, 100 nM MCM-Cdt1 with 1 nM 21.2 kbp DNA in 5 mM ATP for 30 min at 30°C, then high-salt wash (500 mM NaCl) in the flow cell before imaging; MCM hexamer with MCM hexamer (double hexamer) on DNA.

For test [2] the target is unchanged. Put plainly: single-molecule fluorescence colocalisation on optically trapped DNA (confocal microscopy, bleaching-step counting); bulk incubation of 5 nM ORC, 10 nM Cdc6, 100 nM MCM-Cdt1 with 1 nM 21.2 kbp DNA in 5 mM ATP for 30 min at 30°C, diluted 1000x, injected into the flow cell and imaged, no high-salt wash; all proteins on DNA.

As to “JF646-labeled Mcm2-7 (MCM) hexamer on DNA after incubation with ORC, Cdc6 and ATP, P29469 1-868; P24279 1-971; P30665 1-933; P29496 1-775; P53091 1-1017; P38132 1-845”, in test [1], the percent of foci with 2 MCM after high-salt wash was found to be 24% and the stoichiometry N worked out at 2. In addition, the percent of MCM-only foci with two or more MCMs in test [2] came to 52%.
